Experiments:
[1] = biological target: T1, STAT4 (mouse, endogenous) (mouse, UniProt P42228 1-749); experiment: co-immunoprecipitation with anti-Fas antibody and Protein G beads from EL4 mouse T cell line, Western blot
T1 construct: Endogenous intracellular protein
T1 sequence (looked up): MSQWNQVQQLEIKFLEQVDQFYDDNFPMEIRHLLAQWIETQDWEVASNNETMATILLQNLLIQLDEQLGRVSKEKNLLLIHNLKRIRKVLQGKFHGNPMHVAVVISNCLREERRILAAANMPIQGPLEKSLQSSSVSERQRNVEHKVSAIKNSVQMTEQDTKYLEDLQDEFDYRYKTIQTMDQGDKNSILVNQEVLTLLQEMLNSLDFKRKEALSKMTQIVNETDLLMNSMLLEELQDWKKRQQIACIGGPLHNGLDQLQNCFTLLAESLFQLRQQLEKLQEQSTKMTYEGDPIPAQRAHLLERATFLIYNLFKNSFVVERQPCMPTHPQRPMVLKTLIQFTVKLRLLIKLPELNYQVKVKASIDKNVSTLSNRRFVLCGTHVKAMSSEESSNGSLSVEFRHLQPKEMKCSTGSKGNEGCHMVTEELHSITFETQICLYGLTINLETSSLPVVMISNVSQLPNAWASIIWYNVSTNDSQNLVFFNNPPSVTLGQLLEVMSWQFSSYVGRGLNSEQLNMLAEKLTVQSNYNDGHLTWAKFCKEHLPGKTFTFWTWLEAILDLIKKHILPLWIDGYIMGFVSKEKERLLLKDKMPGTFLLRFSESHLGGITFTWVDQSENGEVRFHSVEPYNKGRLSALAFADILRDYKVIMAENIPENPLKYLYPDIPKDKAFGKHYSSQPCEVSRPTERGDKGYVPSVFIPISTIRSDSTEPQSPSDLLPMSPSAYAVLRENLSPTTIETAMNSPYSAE
Experimental: (§1) For DISC assembly, 1*10⁸ EL4 cells or 5-7*10⁷ MACS sorted primary mouse CD4 cells were stimulated for 15 minutes with either biotinylated anti-Fas antibody (Jo2, 2.5 μg/ml) and streptavidin ([…], Thermo Scientific) or with multimerized recombinant human Fas ligand (aa 139-281) fused at the N-terminus to mouse ACRP30headless (aa 18-111) and a FLAG-tag (MegaFasL, Adipogen) at a final concentration of 100 ng/ml as indicated in the figure legends. MegaFasL was dissolved in H₂O that was used as vehicle. For immunoprecipitation (IP) experiments, cells were then washed twice with ice-cold PBS, lysed in ice-cold IP buffer containing 30 mM Tris HCL, 1% Triton-X100, 150 mM NaCl, 2 mM EDTA, 10% glycerol, 1 mM PMSF, phosphatase inhibitors (HALT, Thermo Scientific) and protease inhibitors (Roche). Immuoprecipitation was performed immediately after lysis using protein G magnetic Dynabeads (Life Technologies) with three consecutive washes with IP buffer. For phosphorylation studies, sorted naïve T cells were stimulated with the cytokines as indicated, then washed with PBS, and either lysed in IP buffer or cytoplasmic and nuclear fractions were extracted using NE-PER reagents (Thermo Scientific) following the manufacturer's protocol. […]

[2] = biological target: T2, STAT3 (mouse, endogenous) (mouse, UniProt P42227 2-770); experiment: as above
T2 construct: Endogenous intracellular protein
T2 sequence (P42227 2-770 limits assumed): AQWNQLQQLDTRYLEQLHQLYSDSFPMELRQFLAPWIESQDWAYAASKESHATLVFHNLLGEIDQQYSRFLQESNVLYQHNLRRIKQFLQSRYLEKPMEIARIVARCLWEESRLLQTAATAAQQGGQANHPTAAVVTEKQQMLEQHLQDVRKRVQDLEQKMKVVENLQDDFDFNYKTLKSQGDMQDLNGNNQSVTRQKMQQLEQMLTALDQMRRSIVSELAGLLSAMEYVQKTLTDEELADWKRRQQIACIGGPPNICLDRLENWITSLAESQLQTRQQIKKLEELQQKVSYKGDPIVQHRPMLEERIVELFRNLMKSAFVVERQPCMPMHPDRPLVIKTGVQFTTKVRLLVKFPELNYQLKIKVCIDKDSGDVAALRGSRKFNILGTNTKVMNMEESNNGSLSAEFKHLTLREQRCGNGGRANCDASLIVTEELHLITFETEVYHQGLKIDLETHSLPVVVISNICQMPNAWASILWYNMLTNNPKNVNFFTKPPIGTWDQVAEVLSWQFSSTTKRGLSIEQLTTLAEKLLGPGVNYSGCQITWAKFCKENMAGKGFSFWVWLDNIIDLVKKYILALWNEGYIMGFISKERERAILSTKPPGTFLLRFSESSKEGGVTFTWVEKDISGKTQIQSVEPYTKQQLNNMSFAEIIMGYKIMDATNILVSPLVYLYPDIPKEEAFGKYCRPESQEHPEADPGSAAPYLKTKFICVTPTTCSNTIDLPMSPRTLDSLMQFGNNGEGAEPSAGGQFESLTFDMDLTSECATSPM
Experimental: as §1

B1: Fas (mouse death receptor Fas, endogenous in EL4 cells and primary mouse CD4+ T cells) (receptor, UniProt P25446 22-327, looked up)
chain: QGTNSISESLKLRRRVRETDKNCSEGLYQGGPFCCQPCQPGKKKVEDCKMNGGTPTCAPCTEGKEYMDKNHYADKCRRCTLCDEEHGLEVETNCTLTQNTKCKCKPDFYCDSPGCEHCVRCASCEHGTLEPCTATSNTNCRKQSPRNRLWLLTILVLLIPLVFIYRKYRKRKCWKRRQDDPESRTSSRETIPMNASNLSLSKYIPRIAEDMTIQEAKKFARENNIKEGKIDEIMHDSIQDTAEQKVQLLLCWYQSHGKSDAYQDLIKGLKKAECRRTLDKFQDMVQKDLGKSTPDTGNENEGQCLE
notes: whole, on cells; Endogenous protein; also called Fas receptor; CD95
binding result [1]: no binding | binding result [2]: no binding

Reference: patent publication US20190345446A1 (BROAD INSTITUTE, published 2019)
